Several values for one entry are separate records, joined by “and”; a condition that tells them apart may be missing. Identical values can stand only once.

This data set concerns the molecule itself. As to the kind of experiment: cryo-EM structure.

B1: mouse seipin, recombinant, purified from Expi293 cells co-expressing Adig (natural protein, UniProt Q9Z2E9 1-383, looked up)
chain: MVNDPPVPALLWAQEVGHVLAGRARRLMLQFGVLFCTILLLLWVSVFLYGSFYYSYMPTVSHLSPVHFHYRTDCDSSTASLCSFPVANVSLAKSGRDRVLMYGQPYRVTLELELPESPVNQDLGMFLVTVSCYTRGGRIISTSSRSVMLHYRSQLLQVLDTLLFSSLLLFGFAEQKQLLEVELYSDYRENSYVPTTGAIIEIHSKRIQMYGAYLRIHAHFTGLRYLLYNFPMTCAFVGVASNFTFLSVIVLFSYMQWVWGAVWPRHRFSLQVNIRQRDNSHHGAPRRISRHQPGQESTQQSDVTEDGESPEDPSGTEGQLSEEEKPEKRPLNGEEEQEPEASDGSWEDAALLTEANPPTSASASALAPETLGSLRQRPTCSSS
For orientation: stoichiometry N means a count of units in the complex or per binding partner. B1: the “stoichiometry N” value is 11 and 12.

Values taken from doi:10.1101/2024.07.25.605195 (bioRxiv, 2024).
